This note sets out measurements from patent US20250136677A1 (ZOETIS SERVICES, published 2025).

Positions count from the first letter of the chain named.

The target of test [1] is T1, wildtype feline IL-31 protein (Feline_IL31_wildtype) (feline).
T1 chain: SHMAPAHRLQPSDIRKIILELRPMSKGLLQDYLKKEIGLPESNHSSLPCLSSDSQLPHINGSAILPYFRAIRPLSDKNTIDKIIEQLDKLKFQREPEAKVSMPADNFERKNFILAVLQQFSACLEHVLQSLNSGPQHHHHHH
Nature of the test: cell-based or functional assay.

Test [2] concerns the target T1, wildtype feline IL-31 protein …. Nature of the test: SPR (Biacore), IL-31 on chip. The method, then:
The affinity with which candidate mAbs bind canine and feline IL-31 was determined using surface plasmon resonance (SPR) on a Biacore system (Biocore Life Sciences (GE Healthcare), Uppsala, Sweden). To avoid affinity differences associated with differential surface preparation that can occur when immobilizing antibodies to surfaces; a strategy was employed where IL-31 was directly conjugated to the surface. Immobilization was obtained by amine coupling 5 μg/mL IL-31 using N-hydroxysuccinimide (NHS)/1-Ethyl-3-(3-dimethylaminopropyl) carbodiimide (EDC) chemistry. Chips were quenched with ethanolamine and the affinity with which all candidate mAbs bound to the immobilized IL-31 was evaluated. All curves were fit to a 1:1 model. […] Results for affinity measurements are described herein.
FIG. 2 details the affinity of antibodies with CDRs derived from mouse origin using biacore. […] These observations confirm the correct sequence for both mouse antibodies and indicate conversion to the chimeric form results in antibodies with equivalent or higher affinity when compared to the mouse parent with the exception of the mouse:feline 15H05 chimera which lost some affinity to both IL-31 species as a result of its conversion to the chimeric form. […]
Background: Surface plasmon resonance follows binding to a sensor surface in real time, without labels.

In test [3] the target is T2, mutant feline IL-31 11E12 protein (Feline_IL31_11E12_mutant) (feline).
T2 construct: also called feline 11E12 mutant; 11E12 IL-31 mutant
T2 chain: T1 chain with D81A, I84A
Put plainly: indirect ELISA, feline IL-31 11E12 mutant coated. An excerpt: To determine the impact of mAbs 11E12 and 15H05 ability to bind these mutant forms of feline IL-31, an indirect ELISA was run using the mutants directly coated on to an immunoassay plate. […] When mutant 11E12 is used as a capture protein, binding of mAb 11E12 is highly attenuated and binding of mAb 15H05 is partially attenuated. […] The minor attenuation of mAb 15H05s binding to the 11E12 mutant is likely due to translational effects of the mutations from movement of the two front helices effecting the 15H05 binding site. […] Unlike the 11E12 mutant, the changes in the random coil recognized by mAb 15H05 (mutant 15H05) had no impact on mAb 11E12 binding further supporting the distinction between the two epitopes (FIG. 6C).
For orientation: In an ELISA, binding on a coated surface is turned into a signal by an enzyme label.

The target in test [4] is T3, canine IL-31 protein (Canine_IL31) (canine).
T3 chain: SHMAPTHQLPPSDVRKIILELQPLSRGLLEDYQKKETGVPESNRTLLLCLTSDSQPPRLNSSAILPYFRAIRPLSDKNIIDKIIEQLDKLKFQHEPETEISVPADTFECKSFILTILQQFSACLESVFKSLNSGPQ
Nature of the test: SPR (Biacore), IL-31 on chip, 1:1 fit.

Test [5] concerns the target T1, wildtype feline IL-31 protein …. Nature of the test: SPR (Biacore), IL-31 on chip, 1:1 fit. In a few lines:
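IL-31 was amine-coupled (NHS/EDC) to the chip at 5 μg/mL and quenched with ethanolamine, and candidate mAbs were flowed over it as analytes. Binding curves were fitted to a 1:1 model.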

B1: Feline 11E12 1.2 (antibody, V domains shown)
VH: QVLLVQSGAEVKKPGASVKIFCKASGYSFTYYDINWLRQAPEQGLEWMGWIFPGDGGTKYNETFKGRLTLTADTSTNTVYMELSSLRSADTAMYYCARGGTSVIRDAMDYWGQGALVTVSS
VL: EVVLTQSSAFLSRTLKEKATITCRASESVDNYGISFMHWYQQKPNQAPKLLVKRASNLESGAPSRFSGSGSGTDFTLTISSPEPEDAATYYCQQSNKDPLTFGQGT
notes: Feline heavy and kappa constant regions; also called felinized 11E12 1.2
On to B1, for which, in test [1], the “IC50, inhibition of feline IL-31-induced STAT3 phosphorylation, canine DH82 cells” value is greater than 100 µg/mL and the “IC50, inhibition of feline IL-31-induced STAT3 phosphorylation, feline FCWF4 cells” value is greater than 100 µg/mL. In test [2], the binding result is “no binding”.

B2: mouse:feline 11E12 chimera (antibody)
heavy: QVQLQQSGAELVKPGASVKLSCKASGYTFKYYDINWVRQRPEQGLEWIGWIFPGDGGTKYNETFKGKATLTTDKSSSTAYMQLSRLTSEDSAVYFCARGGTSVIRDAMDYWGQGTSVTVSSASTTAPSVFPLAPSCGTTSGATVALACLVLGYFPEPVTVSWNSGALTSGVHTFPAVLQASGLYSLSSMVTVPSSRWLSDTFTCNVAHPPSNTKVDKTVRKTDHPPGPKPCDCPKCPPPEAAGAPSIFIFPPKPKDTLSISRTPEVTCLVVDLGPDDSDVQITWFVDNTQVYTAKTSPREEQFNSTYRVVSVLPILHQDWLKGKEFKCKVNSKSLPSPIERTISKAKGQPHEPQVYVLPPAQEELSRNKVSVTCLIKSFHPPDIAVEWEITGQPEPENNYRTTPPQLDSDGTYFVYSKLSVDRSHWQRGNTYTCSVSHEALHSHHTQKSLTQSPGK
light: DIVLTQSPASLAVSLGQRATISCRASESVDNYGISFMHWYQQKPGQPPKLLIYRASNLESGIPARFSGSGSRTDFTLTINPVETDDVATYYCQQSNKDPLTFGAGTKLELKRSDAQPSVFLFQPSLDELHTGSASIVCILNDFYPKEVNVKWKVDGVVQNKGIQESTTEQNSKDSTYSLSSTLTMSSTEYQSHEKFSCEVTHKSLASTLVKSFQRSECQRE
notes: Mouse variable regions on feline IgG constant regions; made in HEK 293 cells
The Kd is the equilibrium constant for the complex coming apart. The koff is a measure of how fast the partners let go of each other. Read a low koff as a long-lived complex. As usually defined, the kon is the rate constant with which the complex forms. A low value points to slower complex formation. With B2, the binding result in test [3] is recorded as “binds”. For the same molecule, in test [4], the dissociation constant Kd was determined as 0.000127 nM, the koff is 8.7e-08 s⁻¹ and the kon is 684000 M⁻¹ s⁻¹. In test [5], this molecule showed a Kd of 0.13 nM, a koff of 5.06e-05 s⁻¹ and a kon of 388000 M⁻¹ s⁻¹. Also, in test [1], the “IC50, inhibition of feline IL-31-induced STAT3 phosphorylation, canine DH82 cells” value is 4.4 µg/mL and the “IC50, inhibition of feline IL-31-induced STAT3 phosphorylation, feline FCWF4 cells” value worked out at 3.45 µg/mL.
